According to patent US20040110161, “Method for detecting mutations in nucleotide sequences” (published 2004):
Positions count from the first letter of the chain named.

Experiments:
MutS (Cy5-labeled) [1] = biological target: T1, MutS (Cy5-labeled) (Escherichia coli, UniProt P23909 P23909:1-853); test: impedance spectroscopy; no or only very slight binding; conditions: tags: Cy5 nonspecific amine label; also Gene Check unlabeled in EMSA; hairpin
T1 sequence: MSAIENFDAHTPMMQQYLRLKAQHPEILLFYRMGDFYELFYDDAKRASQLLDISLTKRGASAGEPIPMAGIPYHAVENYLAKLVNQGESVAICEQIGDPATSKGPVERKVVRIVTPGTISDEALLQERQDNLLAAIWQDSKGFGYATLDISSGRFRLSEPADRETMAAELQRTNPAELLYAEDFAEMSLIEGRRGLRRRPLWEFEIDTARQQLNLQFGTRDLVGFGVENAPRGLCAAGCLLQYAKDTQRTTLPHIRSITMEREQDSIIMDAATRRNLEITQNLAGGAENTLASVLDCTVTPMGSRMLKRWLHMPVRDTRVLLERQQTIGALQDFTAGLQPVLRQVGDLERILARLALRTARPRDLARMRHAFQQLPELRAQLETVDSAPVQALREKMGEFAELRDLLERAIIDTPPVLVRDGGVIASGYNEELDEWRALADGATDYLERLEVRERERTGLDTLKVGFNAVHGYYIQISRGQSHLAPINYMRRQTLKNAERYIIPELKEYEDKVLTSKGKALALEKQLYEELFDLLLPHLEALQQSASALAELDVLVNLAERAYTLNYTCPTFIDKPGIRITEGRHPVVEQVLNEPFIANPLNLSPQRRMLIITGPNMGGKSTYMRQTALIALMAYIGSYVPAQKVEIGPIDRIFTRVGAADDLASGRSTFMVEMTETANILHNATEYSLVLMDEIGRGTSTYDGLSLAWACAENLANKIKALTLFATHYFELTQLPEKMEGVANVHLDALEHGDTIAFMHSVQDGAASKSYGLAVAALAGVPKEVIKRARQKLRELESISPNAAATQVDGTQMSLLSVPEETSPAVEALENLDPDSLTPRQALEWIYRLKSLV
Method: (§1) The individual electrodes were measured in aqueous K₃/K₄Fe(CN)₆ solution (Darmstadt, Germany) (20 mM in 20 mM tris buffer, 100 mM KCl, 5 mM MgCl), in the frequency range from 100 mHz to 1 MHz […], before and after incubating with mutS. The measured values are shown in the Bode diagram. The measurements were carried out, at room temperature, on an IM 6e impedance measuring desk supplied by Zahner Messtechnik.
(§2) The advantage of this method is that it is possible to carry out measurements on the samples without destroying them and without using labels. The mutation-recognizing E. coli mutS protein was used as a model system for the binding of mispairing-recognizing substrates, while Seq. ID Nos. 50 and 51 were used as duplex-forming oligonucleotides. […] The results of the measurement are depicted in FIGS. 29A and 29B.

MutS (Cy5-labeled) [2] = biological target: T1, MutS (Cy5-labeled); test: impedance spectroscopy; 100 mM KCl, 5 mM MgCl2; conditions: tags: Cy5 nonspecific amine label; also Gene Check unlabeled in EMSA; hairpin, two G/T mismatches
Method: as §1, §2

MutS (Cy5-labeled) [3] = biological target: T1, MutS (Cy5-labeled); test: EMSA; 150 mM KCl, 10 mM MgCl2; labeled and unlabeled; conditions: tags: Cy5 nonspecific amine label; also Gene Check unlabeled in EMSA; label: 5'-biotin (SPR); 5'-32P (EMSA); G/T mismatch
Method: Subsequently, the band shift method was used to check whether the Cy™5-conjugated mutS proteins were functionally active, i.e. whether they were still able to bind specifically to base mispairings. For this, heteroduplexes were generated by hybridizing the oligonucleotides […] (Seq. ID No. 6) and “GT” (Seq. ID No. 7), respectively, with the “sense” oligonucleotide (Seq. ID No. 11) by heating for 5 minutes at 95° C. in […] tris-HCl, 100 mM KCl, 5 mM MgCl₂, followed by cooling slowly down to room temperature. […] Using T₄ polynucleotide kinase (New England Biolabs, Frankfurt), 10 pmol each of the two heteroduplexes which wer produced using the “AT” and “GT” oligonucleotides were radioactively labeled, in accordance with the manufacturer's instructions, with 150 μCi of ³²P-ATP at their 5′ ends and purified through Sephadex G50 gel filtration columns (Pharmacia, Uppsala, Sweden) in accordance with the manufacturer's instructions. […] After the run, the gels were dried and analyzed by autoradiography (FIG. 6).

MutS (Cy5-labeled) [4] = biological target: T1, MutS (Cy5-labeled); test: hydrogel chip fluorescence; conditions: tags: Cy5 nonspecific amine label, also Gene Check unlabeled in EMSA
Excerpt: (§3) The biotinylated “sense” oligonucleotide (Seq. ID No. 10) was electronically addressed to the individual positions on the hydrogel chip, for 60 sec. and at a voltage of 2.1 V, in the Nanogen workstation loading appliance. The hybridization with the second-strand AT (Seq. ID No. 12), GT (Seq. ID No. 13), AA (Seq. ID No. 14), AG (Seq. ID No. 15), CA (Seq. ID No. 16), CC (Seq. ID No. 17), CT (Seq. ID No. 18), GG (Seq. ID No. 19), TT (Seq. ID No. 20), ins+1T (Seq. ID No. 21), ins+2T (Seq. ID No. 22) and ins+3T (Seq. ID No. 23) oligonucleotides was carried out for 120 sec. at 2.1 V. The loading scheme is shown in Table 45; the name of each second-strand oligonucleotide indicates the mispairing or insertion (“ins”) which is formed on hybridization.
(§4) After the loading, the chips were taken out of the loading appliance, filled with 1 ml of blocking buffer and incubated at room temperature for 60 min in order to saturate nonspecific protein-binding sites. The binding of E.coli mutS (ChipA), MBP-MutS (ChipB), Thermus aquaticus mutS (ChipC) and Thermus thermophilus mutS (Chip D) to the resulting DNA double strands was then tested. For this, the chips were incubated for 60 min with in each case 2-3 μg of the Cy™5-labeled mutS proteins in 100 μl of incubation buffer. The chips which were incubated with E.coli mutS and MBP mutS were incubated at room temperature while the chips which were incubated with Thermus aquaticus mutS and Thermus thermophilus mutS were incubated at 37° C. After this incubation, the chips were washed by hand with 10 ml of incubation buffer and inserted into the Nanogen reader. In the reader, the chips were washed, at a temperature of 37° C. (E.coli mutS and MBP-mutS) or 50° C. (Thermus aquaticus mutS and Thermus thermophilus mutS), 70-80× with in each case 0.25 ml of washing buffer.
(§5) Finally, the Cy™3 and Cy™5 fluorescence intensities at the individual positions on the chips were measured in the Nanogen reader using the following instrument settings: high sensitivity (“high gain”) in the case of Cy™5, low sensitivity (“low gain”) in the case of CY™3; 256 μs integration time. Care was taken to ensure that the Cy™3 fluorescence intensity was distributed homogeneously over the chip surface.

[5] = biological target: T2, MBP-MutS fusion (Cy5-labeled) (Escherichia coli, UniProt P23909 P23909:1-853); test: hydrogel chip fluorescence; conditions: label: 5'-biotin, 5'-Cy3
T2 chain: T1 sequence
Excerpt: as §3, §4, §5

Question: Does ATTCGATCGGGGCGGGGCGAGCTTTTGCTCGCCCCGCCCCGATCGAAT (structured_DNA, 5'-SH, amino modifier X in loop) [hairpin perfectly paired] bind (MutS (Cy5-labeled) [1])?
Answer: Result: no binding

Question: Does ATTCGATCGGGGCGGGGCGAGCTTTTTGCTCGCCTTGCCCCGATCGAAT (structured_DNA, 5'-SH, amino modifier X in loop) [hairpin with two GT mispairings] bind (MutS (Cy5-labeled) [2])?
Answer: Result: binds

B1: sense(36)/GT (dsDNA)
DNA 1: AAGCATACGGAAGTTAAAGTGCGGATCATCTCTAGC
DNA 2: TGGCTAGAGATGATCCGCGCTTTAACTTCCGTATGC
Question: Does B1 bind (MutS (Cy5-labeled) [3])?
Answer: Result: binds

B2: sense/AG mismatch (dsDNA)
DNA 1: AAGCATACGGAAGTTAAAGTGCGGATCATCTCTAGCCA
DNA 2: B1 DNA 2 with G19A, C20A
Question: For B2, which binding signal (MutS (Cy5-labeled) [4]; label: 5'-biotin, 5'-Cy3, A/G mismatch) is on record?
Answer: Its binding signal is 3.34 fold vs AT.

Question: And the binding signal ([5]; A/G mismatch)?
Answer: The binding signal was 2.72 fold vs AT.

B3: sense/GG mismatch (dsDNA)
DNA 1: B2 DNA 1
DNA 2: B1 DNA 2 with G19A, C20G
Question: For B3, which binding signal (MutS (Cy5-labeled) [4]; label: 5'-biotin, 5'-Cy3, G/G mismatch) is on record?
Answer: Its binding signal is 18.4 fold vs AT.

Question: And the binding signal ([5]; G/G mismatch)?
Answer: The binding signal was 6.5 fold vs AT.

B4: sense/AC mismatch (dsDNA)
DNA 1: B2 DNA 1
DNA 2: B1 DNA 2 with G19A, T21C
Question: B4 was tested. Which binding signal (MutS (Cy5-labeled) [4]; label: 5'-biotin, 5'-Cy3, A/C mismatch) did it give?
Answer: Its binding signal is 5.73 fold vs AT.

Question: What about the binding signal ([5]; A/C mismatch) of the same binder?
Answer: The binding signal was 2.53 fold vs AT.

B5: sense/AT perfect duplex (dsDNA)
DNA 1: B2 DNA 1
DNA 2: B1 DNA 2 with G19A
Question: With B5 as the binder, how does the binding signal (MutS (Cy5-labeled) [4]; label: 5'-biotin sense, 5'-Cy3 AT) read?
Answer: Its binding signal is 1 fold vs AT.

B6: sense/TT mismatch (dsDNA)
DNA 1: B2 DNA 1
DNA 2: B1 DNA 2 with G19T
Question: What does the source list for B6?
Answer: binding signal (MutS (Cy5-labeled) [4]; label: 5'-biotin, 5'-Cy3, T/T mismatch): 1.82 fold vs AT; binding signal ([5]; T/T mismatch): 1.94 fold vs AT

B7: sense/GT mismatch (dsDNA)
DNA 1: B2 DNA 1
DNA 2: B1 DNA 2
Question: What does the source list for B7?
Answer: binding signal (MutS (Cy5-labeled) [4]; label: 5'-biotin, 5'-Cy3, G/T mismatch): 29 fold vs AT; binding signal ([5]; G/T mismatch): 22.3 fold vs AT

B8: sense/CC mismatch (dsDNA)
DNA 1: B2 DNA 1
DNA 2: B1 DNA 2 with G17C, G19A
Question: Which binding signal (MutS (Cy5-labeled) [4]; label: 5'-biotin, 5'-Cy3, C/C mismatch) does the source give for B8 here?
Answer: Its binding signal is 1.37 fold vs AT.

B9: sense/CT mismatch (dsDNA)
DNA 1: B2 DNA 1
DNA 2: B1 DNA 2 with G19C
Question: With B9 as the binder, how does the binding signal (MutS (Cy5-labeled) [4]; label: 5'-biotin, 5'-Cy3, C/T mismatch) read?
Answer: Its binding signal is 6.24 fold vs AT.

Question: What about the binding signal ([5]; C/T mismatch) of the same binder?
Answer: Its binding signal is 3.56 fold vs AT.

B10: sense/AA mismatch (dsDNA)
DNA 1: B2 DNA 1
DNA 2: B1 DNA 2 with G19A, T21A
Question: B10 was tested. Which binding signal (MutS (Cy5-labeled) [4]; label: 5'-biotin, 5'-Cy3, A/A mismatch) did it give?
Answer: The binding signal was 13 fold vs AT.

Question: And the binding signal ([5]; A/A mismatch)?
Answer: The binding signal was 4.03 fold vs AT.
